How the values were obtained:
[1] = target: T1, human CD40 expressed on cells (human, UniProt P25942 21-277); experiment: cell-based or functional assay
[2] = target: T1, human CD40 expressed on cells; experiment: cell-based or functional assay; remark: listed apart in the source
[3] = target: T1, human CD40 expressed on cells; experiment: cell-based or functional assay; remark: listed apart in the source
[4] = target: T1, human CD40 expressed on cells; experiment: cell-based or functional assay; remark: listed apart in the source
[5] = target: T1, human CD40 expressed on cells; experiment: cell-based or functional assay; remark: listed apart in the source
[6] = target: T1, human CD40 expressed on cells; experiment: cell-based or functional assay; remark: listed apart in the source
[7] = target: T2, human CD40 extracellular domain expressed with a C-terminal myc-myc-hexahistidine tag (human); experiment: BLI Octet, hCD40-MMH captured on anti-Penta-His tips
T2 construct: also called hCD40-MMH; hCD40-mmH
Protocol: Binding competition between different anti-CD40 monoclonal antibodies (mAbs) was determined using a real time, label-free bio-layer interferometry (BLI) assay on the Octet HTX biosensor platform (Pall ForteBio Corp.). In addition to parental antibodies 21519P2, 21520P2, and 30027P2, a comparator anti-CD40 antibody (REGN11209) was also tested; this comparator has the heavy chain and light chain sequences of iscalimab (see, U.S. Pat. No. 8,828,396). The entire experiment was performed at 25° C. in 10 mM HEPES buffer containing 150 mM NaCl, 3 mM EDTA, 1 mg/mL BSA, 0.02% NaN₃, and 0.05% v/v Surfactant Tween-20 at pH 7.4 (HBS-EP) with the plate shaking at a speed of 1000 rpm.
To assess the ability of one antibody to compete with another antibody for binding to CD40, around 0.47 nm-0.54 nm of recombinant human CD40 extracellular domain expressed with a C-terminal myc-myc-hexahistidine (hCD40-MMH; SEQ ID NO: 53) was first captured onto anti-Penta-His antibody coated Octet biosensor tips (Fortebio Inc, #18-5122) by submerging the biosensor tips in wells containing 10 μg/mL solution of the hCD40-MMH for 90 seconds. […] The real-time binding response was monitored and the binding response at the end of every step was recorded. […]
Target sequence in this assay (chain, as listed by the source limits assumed): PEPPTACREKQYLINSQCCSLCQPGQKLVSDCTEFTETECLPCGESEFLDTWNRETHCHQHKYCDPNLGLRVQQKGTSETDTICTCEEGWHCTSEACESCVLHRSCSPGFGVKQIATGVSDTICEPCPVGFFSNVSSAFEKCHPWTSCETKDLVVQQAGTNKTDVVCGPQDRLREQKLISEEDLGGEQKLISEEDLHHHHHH

[8] = target: T3, monkey CD40 extracellular domain expressed with a C-terminal myc-myc-hexahistidine tag (monkey); experiment: SPR 25C, captured mAb
T3 construct: also called mfCD40-MMH; REGN3097
T3 chain: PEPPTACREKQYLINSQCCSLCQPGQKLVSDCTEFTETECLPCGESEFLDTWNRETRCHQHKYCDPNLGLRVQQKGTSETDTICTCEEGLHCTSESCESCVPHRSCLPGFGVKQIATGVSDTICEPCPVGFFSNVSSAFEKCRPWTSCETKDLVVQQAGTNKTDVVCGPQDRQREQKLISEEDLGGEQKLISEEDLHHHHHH
Protocol: (§1) The equilibrium dissociation constants (KD) for anti-CD40 bivalent and bispecific monoclonal antibodies (mAbs) were determined using a real-time surface plasmon resonance (SPR)-based Biacore 4000 biosensor. All binding studies were performed in 10 mM HEPES, 150 mM NaCl, 3 mM EDTA, and 0.05% v/v surfactant Tween-20, pH 7.4 (HBS-ET) running buffer at 25° C. and 37° C. The Biacore CM5 sensor surface was first derivatized by amine coupling with a monoclonal mouse anti-human Fc antibody (REGN2567) to capture anti-CD40 bivalent parental and anti-CD40×CD40 bispecific antibodies. Different concentrations of CD40 reagents, human CD40 extracellular domain expressed with a C-terminal myc-myc-hexahistidine tag (“hCD40-MMH”; REGN3094; SEQ ID NO: 53), monkey CD40 extracellular domain expressed with a C-terminal myc-myc-hexahistidine tag (“mfCD40-MMH”; REGN3097; SEQ ID NO: 54), and mouse CD40 extracellular domain expressed with a C-terminal myc-myc-hexahistidine tag (“mCD40-MMH”; REGN3098; SEQ ID NO: 55), at concentrations ranging from 3.7 nM to 100 nM or 3.3 nM to 90 nM in a series of 3-fold dilutions prepared in HBS-ET running buffer were injected at a flow rate of […] for 4 minutes or […] for 5 minutes. The dissociation of different CD40 reagents bound to anti-CD40 bivalent parental and anti-CD40×CD40 bispecific antibodies was monitored for 10 minutes in HBS-ET running buffer. At the end of each cycle, the anti-CD40 bivalent parental and anti-CD40×CD40 bispecific antibodies capture surface was regenerated using a 12 sec injection of 20 mM H₃PO₄.
(§2) The association rate (ka) and dissociation rate (kd) were determined by fitting the real-time binding sensorgrams to a 1:1 binding model with mass transport limitation using Scrubber 2.0c curve-fitting software. Binding dissociation equilibrium constant (KD) and dissociative half-life (t½) were calculated from the kinetic rates as: KD (M)=kd/kₐ, and t_{1/2} (min)=[ln(2)/(60*kd)].

[9] = target: T4, mouse CD40 extracellular domain expressed with a C-terminal myc-myc-hexahistidine tag (mouse); experiment: SPR 25C, captured mAb
T4 construct: also called mCD40-MMH; REGN3098
T4 chain: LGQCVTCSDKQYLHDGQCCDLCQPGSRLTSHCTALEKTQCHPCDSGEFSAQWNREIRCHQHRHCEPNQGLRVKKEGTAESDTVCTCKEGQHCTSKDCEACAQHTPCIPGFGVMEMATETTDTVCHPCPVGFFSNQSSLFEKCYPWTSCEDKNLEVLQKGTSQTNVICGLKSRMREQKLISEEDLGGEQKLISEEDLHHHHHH
Protocol: as §1, §2

[10] = target: T2, human CD40 extracellular domain …; experiment: SPR 25C, captured mAb
Protocol: as §1, §2

[11] = target: T4, mouse CD40 extracellular domain …; experiment: SPR 37C, captured mAb
Protocol: as §1, §2

[12] = target: T2, human CD40 extracellular domain …; experiment: SPR 37C, captured mAb
Protocol: as §1, §2

[13] = target: T1, human CD40 expressed on cells; experiment: cell-based or functional assay; remark: listed apart in the source
[14] = target: T1, human CD40 expressed on cells; experiment: cell-based or functional assay; remark: listed apart in the source
[15] = target: T1, human CD40 expressed on cells; experiment: cell-based or functional assay; remark: listed apart in the source
[16] = target: T2, human CD40 extracellular domain …; experiment: ELISA, blocks 40 nM hCD40-mmH binding to coated 9His-hCD40L
How it was run: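 Antibodies (977 pM to 1 μM) were pre-mixed 1 h with 40 nM hCD40-mmH in PBS+0.5% BSA, then added for 1 h at room temperature to plates coated with 9His-hCD40L (5 μg/mL). Bound hCD40-mmH detected with HRP anti-c-Myc and TMB, OD450. Data fitted by four-parameter logistic; percent blocking calculated at highest concentration.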

T1 sequence (P25942 21-277): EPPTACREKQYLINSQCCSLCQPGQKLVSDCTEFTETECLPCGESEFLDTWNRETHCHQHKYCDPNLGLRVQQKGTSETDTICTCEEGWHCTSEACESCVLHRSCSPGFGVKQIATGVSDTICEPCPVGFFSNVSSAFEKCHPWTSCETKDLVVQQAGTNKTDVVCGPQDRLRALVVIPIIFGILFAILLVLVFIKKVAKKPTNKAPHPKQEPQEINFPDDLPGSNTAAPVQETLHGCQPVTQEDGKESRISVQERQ

B1: REGN11209 (comparator anti-CD40 antibody with the heavy chain and light chain sequences of iscalimab) (antibody, human IgG1, kappa, N297A, V domains shown)
VH: QVQLVESGGGVVQPGRSLRLSCAASGFTFSSYGMHWVRQAPGKGLEWVAVISYEESNRYHADSVKGRFTISRDNSKITLYLQMNSLRTEDTAVYYCARDGGIAAPGPDYWGQGTLVTVSS
VL: DIVMTQSPLSLTVTPGEPASISCRSSQSLLYSNGYNYLDWYLQKPGQSPQVLISLGSNRASGVPDRFSGSGSGTDFTLKISRVEAEDVGVYYCMQARQTPFTFGPGTKVDIRR
notes: also called COMP11209; CFZ533
[1]
  % max blockade relative to no mAb, IL-6, B cells, donor 1: 84.2%
  % max blockade relative to no mAb, IL-6, B cells, donor 2: 91.3%
  % max blockade relative to no mAb, IL-6, B cells, donor 3: 91.3%
[2]
  % max blockade relative to no mAb, IL-10, B cells, donor 1: 84.1%
  % max blockade relative to no mAb, IL-10, B cells, donor 2: 91.7%
  % max blockade relative to no mAb, IL-10, B cells, donor 3: 91.4%
[3]
  % max blockade relative to no mAb, TNFa, B cells, donor 1: 53.9%
  % max blockade relative to no mAb, TNFa, B cells, donor 2: 71.4%
  % max blockade relative to no mAb, TNFa, B cells, donor 3: 73.9%
[4]
  % max blockade relative to no mAb, IL-6, assay #2, donor 1: 88.6%
  % max blockade relative to no mAb, IL-6, assay #2, donor 2: 88.3%
[5]
  % max blockade relative to no mAb, IL-10, assay #2, donor 1: 88.1%
  % max blockade relative to no mAb, IL-10, assay #2, donor 2: 90.5%
[6]
  % max blockade relative to no mAb, TNFa, assay #2, donor 1: 62%
  % max blockade relative to no mAb, TNFa, assay #2, donor 2: 50.6%
[7]
  binding result: binds

B2: 21519P2 (antibody, human IgG4 S228P, kappa, V domains shown)
VH: QLQLQESGPGLVRPSETLSLTCSVSGASMNTNNYYWGWIRQPPGKGLEWIGSGYYNGNTYYNPSLKSRVTISVDTSKNQFSLKLNSVTAADTAVYYCARQTPPRIIGSPNIWGQGTMVTVSS
VL: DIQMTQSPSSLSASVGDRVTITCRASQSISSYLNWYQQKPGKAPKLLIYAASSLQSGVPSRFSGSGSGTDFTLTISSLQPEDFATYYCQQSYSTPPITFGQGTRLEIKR
notes: Parental bivalent anti-CD40 mAb; also called H4sH21519P2
[8]
  100 nM Ag Bound (RU): 10.3 RU
[9]
  100 nM Ag Bound (RU): 0.4 RU
[10]
  100 nM Ag Bound (RU): 99 RU
[11]
  100 nM Ag Bound (RU): 1.6 RU
[12]
  100 nM Ag Bound (RU): 105 RU
[13]
  IC50, NFkB-luc Ramos, 500 pM hCD40L: 3.09e-11 M
  Max % activation, NFkB-luc Ramos, no ligand: 13%
  Max % inhibition, NFkB-luc Ramos, 500 pM hCD40L: 88%
[14]
  IC50, NFkB-luc Raji, 900 pM hCD40L: 6.05e-11 M
  Max % activation, NFkB-luc Raji, no ligand: 15%
  Max % inhibition, NFkB-luc Raji, 900 pM hCD40L: 92%
[15]
  IC50, NFkB-luc THP-1, 10 nM hCD40L: 0.276 nM
  Max % activation, NFkB-luc THP-1, no ligand: 5%
  Max % inhibition, NFkB-luc THP-1, 10 nM hCD40L: 99%
[16]
  % Blocking at highest mAb concentration: 94%

Reference: patent publication US20250276092A1 (Regeneron, published 2025)
